Data on 83 variants can be found in the RNAGym collection of RNA variant scans (doi:10.1073/pnas.2313332121).

Sequences and labels used below:
B1: TPR 5TU (parent)
chain: GGAUCUUCUCGAUCUAACAAAAAAGACAAAUCUGCCACAAAGCUUGAGAGCAUCUUCGGAUGCAGAGGCGGCAGCCUUCGGUGGCGCGAUAGCGCCAACGUUCUCAACUAUGACACGCAAAACGCGUGCUCCGUUGAAUGGAGUUUAUCAUG

Variants at the floor of the assay were thinned out.

The variants in this series derive from B1. Kind of series: polymerase ribozyme fitness, log enrichment relative to wild type (log ratio); higher = more active; in vitro selection for triplet polymerase activity. Put shortly:
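For each subunit of a heterodimeric triplet polymerase ribozyme, a mutant library was built by PCR and transcribed, then taken through a single in vitro selection round in triplicate. Selection involved annealing to a biotinylated primer, the partner subunit and triplets, incubation frozen at −7 °C, gel excision of extended constructs, capture on streptavidin beads and RT-PCR. Genotypes were retained after Illumina sequencing of inputs and outputs only with ≥10 input reads and ≥1 read in each output. Fitness is defined as the logarithm of a genotype's enrichment relative to wild-type enrichment, using inverse-variance-weighted averages across replicates, with the logarithm taken to base 2.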
Regarding U13G A28U A64C G68A C79U, the “polymerase ribozyme fitness (log ratio)” value is at most -4.2. On to U6A C38G G42C G86U C93U U127A, for which the “polymerase ribozyme fitness (log ratio)” value is at most -4.2. As for A73G C93U G141U, the “polymerase ribozyme fitness (log ratio)” value stood at 0.326. Then U53A G81U G88A A115G A147U, with at most -4.2. With G86U the figure was -1.62; with C93G C96U, -3.61; with A60U C79U G81U A91G C95G U102A, at most -4.2. Then U56A G84A U90C C125A, with at most -4.2; and A39U U53A A91G A97G U111G, with -4.05; and A28C A52U U55G C87G C125U G152A, with at most -4.2. For the variant G42A A47U U53G A64U G94U A120U, the “polymerase ribozyme fitness (log ratio)” value is at most -4.2. Then A21U U33A A40U G58A C85G A98C A106U G126C, with at most -4.2; and A20C G25U C51A U77G G94C A115U G140C, with at most -4.2; and U6G C54G A73U U102A A106G U127G C132G U135G, with at most -4.2. Then C8A C27U U44G A49C C72G C79A G92A G143U, with at most -4.2; and C18G A19U G83U C95U C118U U144A, with -3.01; and C35U U55A G84U A147C, with -2.79. C76A A138U: the “polymerase ribozyme fitness (log ratio)” value was -4.05. Regarding G59A C87U U101G G136C, the “polymerase ribozyme fitness (log ratio)” value was -2.91.

Regarding U4G A21C C93G, the “polymerase ribozyme fitness (log ratio)” value was -1.92. With G81A C85A the figure was 0.102; with C32U A41C G58U A60C C75G C96U C114A, at most -4.2. Then A40C U44G C63U C95U C103G A115G A142C, with at most -4.2. With A28C A30C A41U C57U A107C the figure was at most -4.2; with C27U A47C, -1.01.

As for U15C A17U A60G G62C A91U, the “polymerase ribozyme fitness (log ratio)” value is at most -4.2.

As for A26U G141U, the “polymerase ribozyme fitness (log ratio)” value is -1.94. For A24U C87U, the “polymerase ribozyme fitness (log ratio)” value was -0.48.

On to A26U A29C A47G A49U G59C G65A G117C U139G, for which the “polymerase ribozyme fitness (log ratio)” value is at most -4.2.

With A22G G50U U56G G58U C76U A122G, the “polymerase ribozyme fitness (log ratio)” value is -4.16. A21U U56A C96U: the “polymerase ribozyme fitness (log ratio)” value was -0.871. Then G84U C95U, with -1.23. Then A21C U148A, with -3.11; and U15G A21U C85U A121U A138G, with -4.04; and C5A A47U C76G G94C U101G, with -4.01. Then A28C C43U C76G A110G A138U, with at most -4.2. Consider C95U C96G U135G U144G A147C, for which the “polymerase ribozyme fitness (log ratio)” value is -4.2. Then C93U G94U A107C, with at most -4.2. Regarding A16U A29G A30U U53A U55A G62C U77G C116U, the “polymerase ribozyme fitness (log ratio)” value is at most -4.2. With U56A A91U C125U C132U G140A U148A the figure was at most -4.2; with C93U C103U A107C C125A, at most -4.2; with C27U G34C C93A G117A, at most -4.2. Then G94A A106G C131G, with at most -4.2. Then C8U C57U A60C A97U A115U, with at most -4.2; and C129A, with -2.46; and G71A G80U C85U, with at most -4.2. C36U U77G A98U U134A: the “polymerase ribozyme fitness (log ratio)” value was at most -4.2.

With G86A A89U C105U U134A, the “polymerase ribozyme fitness (log ratio)” value is -3.77. Turning to G100U U101G, the “polymerase ribozyme fitness (log ratio)” value was -3.34.

For the variant A20C G34A A47G U104G U130G A150G, the “polymerase ribozyme fitness (log ratio)” value was at most -4.2. With C32U U61A G74U C99G the figure was at most -4.2; with C51U C69U C96G, -3.06; with A49C A52C A91U U130A U134A U135C A142G, at most -4.2. With G34U A142C the figure was -3.85; with C54G G67A U77C C87A C99U U130G, at most -4.2; with A17C A41U U56A C99U A121G A147G, -3.04.

Consider G62A C85A U151C, for which the “polymerase ribozyme fitness (log ratio)” value was at most -4.2. Then G70U G81A, with -2.35.

Consider A22U G81A A106C G128A U139C, for which the “polymerase ribozyme fitness (log ratio)” value was -3.92. With A40U A122C the figure was 0.0565; with G42C G62U A64C G71A C79G C132G U139G U146G, at most -4.2. Then U4C A12C A24U C27G A28G U44A G88A C116U G143A, with at most -4.2; and A119C G143A, with -0.422; and C63U C87G, with -4.05.

In the case of C38G A52G G62A U135G, the “polymerase ribozyme fitness (log ratio)” value is at most -4.2. With U7C C35U the figure was -2.29; with U13A C18U U55A A119G, -1.83. A41U G50C C76U C93G A138G A150U: the “polymerase ribozyme fitness (log ratio)” value was at most -4.2. Turning to U6G G141A, the “polymerase ribozyme fitness (log ratio)” value is 0.243. With A40C G100U U102G U135A the figure was at most -4.2. With G11A A19U U61A G84C C85A C103G the figure was at most -4.2; with C72U C96G U127C C131U G140U U151A, at most -4.2.

With G84A A97U A147U, the “polymerase ribozyme fitness (log ratio)” value stood at 0.467. With C76U C85U C99G the figure was -1.05; with G42C G94C U111C, at most -4.2.

U4G C8G A23C A52G C54G G74C: the “polymerase ribozyme fitness (log ratio)” value was at most -4.2. With A30U A40G G50C G67A C76A C85U A89C C132U the figure was at most -4.2; with A21C A26C A28C G70U A107C A147C, at most -4.2. Turning to C27U C43U C95U A119U G143C U144C, the “polymerase ribozyme fitness (log ratio)” value was -4.15.

In the case of G71C G83U G141A A147C C149A, the “polymerase ribozyme fitness (log ratio)” value was at most -4.2. For A21C G84A C118A, the “polymerase ribozyme fitness (log ratio)” value is -0.563.

On to C27G G58A C93A C95G, for which the “polymerase ribozyme fitness (log ratio)” value was at most -4.2.

In the case of A52G A121C, the “polymerase ribozyme fitness (log ratio)” value was -0.337.
